Experimental findings from publication PMC3743062 (Scientific Reports, 2013) are described below.

For this assay, the target named is Calmodulin (CaM), wild type (UniProt P0DP23 1-149). In words: crystal structure.

B1: NaV1.6 IQ motif (1893-1914), the part of the fusion CaM-(Gly)5-NaV1.6 IQ (domain or fragment)
chain: EEVSAVVLQRAYRGHLARRGFI
On to B1, for which the binding result is “binds”.
